From patent US20070009529A1, “Agents that dissolve arterial thrombi” (New York University, priority 2002, published 2007)

Experiments:
[1] = test system: platelets; test: Platelet oxidation/fragmentation induced independently of anti-GPIIIa49-66 (DCHF-loaded platelets); type: cell-based
[2] = test system: platelets; test: Platelet 12(S)-HETE generation; type: cell-based
Text: Recombinant ADAMTS-18 was then made with the expression vector pBudCE4.1 in 293T cells. This peptide induced platelet 12(S)—HETE and oxidation/fragmentation in an identical kinetic fashion as anti-GPIIIa49-66 antibody. Both expressed rADAMTS-18, and HUVEC conditioned media ADAMTS-18 could be activated by thrombin (0.5μ/mL and then neutralized with hirudin), with optimum effect at one hour (n=4). HUVEC ADAMTS-18 induced oxidation fragmentation could be inhibited about 50% by an scFV antibody raised against the ADAMTS-18 (18-mer) peptide as well as GPIIIa49-66 peptide, as well as RGDS (GPIIIa ligand binding site) (n=7).

B1: Recombinant ADAMTS-18: recombinant disintegrin and metalloprotease with thrombospondin-like motifs, expressed with pBudCE4.1 in 293T cells (protein, UniProt Q8TE60 285-1221, looked up)
A disintegrin and …: SAGKSQKGLNVETLVVADKKMVEKHGKGNVTTYILTVMNMVSGLFKDGTIGSDINVVVVSLILLEQEPGGLLINHHADQSLNSFCQWQSALIGKNGKRHDHAILLTGFDICSWKNEPCDTLGFAPISGMCSKYRSCTINEDTGLGLAFTIAHESGHNFGMIHDGEGNPCRKAEGNIMSPTLTGNNGVFSWSSCSRQYLKKFLSTPQAGCLVDEPKQAGQYKYPDKLPGQIYDADTQCKWQFGAKAKLCSLGFVKDICKSLWCHRVGHRCETKFMPAAEGTVCGLSMWCRQGQCVKFGELGPRPIHGQWSAWSKWSECSRTCGGGVKFQERHCNNPKPQYGGLFCPGSSRIYQLCNINPCNENSLDFRAQQCAEYNSKPFRGWFYQWKPYTKVEEEDRCKLYCKAENFEFFFAMSGKVKDGTPCSPNKNDVCIDGVCELVGCDHELGSKAVSDACGVCKGDNSTCKFYKGLYLNQHKANEYYPVVLIPAGARSIEIQELQVSSSYLAVRSLSQKYYLTGGWSIDWPGEFPFAGTTFEYQRSFNRPERLYAPGPTNETLVFEILMQGKNPGIAWKYALPKVMNGTPPATKRPAYTWSIVQSECSVSCGGGYINVKAICLRDQNTQVNSSFCSAKTKPVTEPKICNAFSCPAYWMPGEWSTCSKACAGGQQSRKIQCVQKKPFQKEEAVLHSLCPVSTPTQVQACNSHACPPQWSLGPWSQCSKTCGRGVRKRELLCKGSAAETLPESQCTSLPRPELQEGCVLGRCPKNSRLQWVASSWSECSATCGLGVRKREMKCSEKGFQGKLITFPERRCRNIKKPNLDLEETCNRRACPAHPVYNMVAGWYSLPWQQCTVTCGGGVQTRSVHCVQQGRPSSSCLLHQKPPVLRACNTNFCPAPEKREDPSCVDFFNWCHLVPQHGVCNHKFYGKQCCKSCTRKI
modifications: recombinant, 293T-expressed
notes: recombinant disintegrin and metalloprotease with thrombospondin-like motifs, expressed with pBudCE4.1 in 293T cells
- platelet oxidation/fragmentation ([1]; concentration not given): induced
- time of optimum effect of activation by thrombin ([1]; thrombin 0.5μ/mL, then neutralized with hirudin, n=4): one
- platelet 12(S)-HETE [2]: induced
